From article PMC3364985, “Staphylococcus aureus Surface Protein SdrE Binds Complement Regulator Factor H as an Immune Evasion Tactic” (PLoS ONE, 2012) come the findings set out here.

Assay [1] addresses recombinant SdrE (6×His-tagged A region of serine-aspartate repeat-containing protein E) (S. aureus). Nature of the assay: far-Western, overlay or dot blot; 5 µg of rSdrE, rClfA and BSA adsorbed to a PVDF membrane, blocked with 3% BSA/TBST, overlaid with purified fH (20 µg fH/10 ml block buffer) overnight; anti-fH, ECL, optical densitometry against a purified fH dilution series.

The target of assay [2] is T1, SdrE expressed on the surface of Lactococcus lactis (pKS80-SdrE) (S. aureus, UniProt O86489 53-1132).
T1 construct: Compared throughout with L. lactis carrying the empty vector pKS80; also called L. lactis (pKS80-SdrE); SdrE-expressing L. lactis; source: L. lactis, constitutively expressed from pKS80, on the bacterial surface
Nature of the assay: far-Western, overlay or dot blot; whole L. lactis (pKS80-SdrE or pKS80) immobilised on a PVDF membrane, overlaid with 5% HI-serum in 0.05% gelatin/PBST for 1 hr; anti-fH, optical densitometry against a serum dilution series. The following applies: partners not purified.

The target of assay [3] is T1, SdrE expressed on the surface of …. Nature of the assay: binding to whole bacteria in solution, SDS extraction, fH ELISA; L. lactis (OD600 = 4.0) in GVBS^++ with various amounts of HI-serum, 1 hr, 37°C; bound proteins extracted with 2% SDS; fH ELISA with chicken antibodies specific for human fH. The following applies: partners not purified.

T1 sequence (O86489 53-1132): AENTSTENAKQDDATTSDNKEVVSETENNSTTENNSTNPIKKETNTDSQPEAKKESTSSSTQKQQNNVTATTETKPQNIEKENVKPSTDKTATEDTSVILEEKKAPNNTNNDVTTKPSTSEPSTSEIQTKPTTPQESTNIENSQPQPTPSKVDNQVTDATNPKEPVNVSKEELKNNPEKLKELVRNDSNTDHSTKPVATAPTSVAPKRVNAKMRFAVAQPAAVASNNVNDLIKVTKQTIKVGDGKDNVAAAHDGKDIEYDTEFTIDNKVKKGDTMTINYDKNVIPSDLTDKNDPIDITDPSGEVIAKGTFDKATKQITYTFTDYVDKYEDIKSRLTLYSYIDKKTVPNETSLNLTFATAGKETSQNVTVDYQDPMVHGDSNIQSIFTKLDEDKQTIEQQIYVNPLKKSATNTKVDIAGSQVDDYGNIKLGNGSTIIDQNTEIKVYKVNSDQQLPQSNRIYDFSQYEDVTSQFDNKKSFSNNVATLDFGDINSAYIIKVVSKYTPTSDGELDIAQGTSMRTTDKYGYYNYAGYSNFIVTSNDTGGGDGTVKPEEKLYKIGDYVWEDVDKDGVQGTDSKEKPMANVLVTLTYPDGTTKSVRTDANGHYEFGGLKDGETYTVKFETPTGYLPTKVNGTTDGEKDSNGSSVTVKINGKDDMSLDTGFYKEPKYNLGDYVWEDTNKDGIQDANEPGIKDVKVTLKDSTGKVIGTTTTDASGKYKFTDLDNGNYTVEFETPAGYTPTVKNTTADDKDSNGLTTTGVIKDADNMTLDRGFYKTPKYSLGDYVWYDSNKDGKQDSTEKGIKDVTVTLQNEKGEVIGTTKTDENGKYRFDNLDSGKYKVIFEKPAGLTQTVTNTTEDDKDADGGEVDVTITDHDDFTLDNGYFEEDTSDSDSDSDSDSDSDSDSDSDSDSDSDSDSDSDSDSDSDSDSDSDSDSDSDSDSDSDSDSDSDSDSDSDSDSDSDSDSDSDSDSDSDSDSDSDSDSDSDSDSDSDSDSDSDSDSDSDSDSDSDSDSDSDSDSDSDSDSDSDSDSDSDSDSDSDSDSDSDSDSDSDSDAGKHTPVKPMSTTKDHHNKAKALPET
Chain of recombinant SdrE (6×His-tagged A region of serine-aspartate repeat-containing protein E) (S. aureus) (O86489 53-606 limits assumed): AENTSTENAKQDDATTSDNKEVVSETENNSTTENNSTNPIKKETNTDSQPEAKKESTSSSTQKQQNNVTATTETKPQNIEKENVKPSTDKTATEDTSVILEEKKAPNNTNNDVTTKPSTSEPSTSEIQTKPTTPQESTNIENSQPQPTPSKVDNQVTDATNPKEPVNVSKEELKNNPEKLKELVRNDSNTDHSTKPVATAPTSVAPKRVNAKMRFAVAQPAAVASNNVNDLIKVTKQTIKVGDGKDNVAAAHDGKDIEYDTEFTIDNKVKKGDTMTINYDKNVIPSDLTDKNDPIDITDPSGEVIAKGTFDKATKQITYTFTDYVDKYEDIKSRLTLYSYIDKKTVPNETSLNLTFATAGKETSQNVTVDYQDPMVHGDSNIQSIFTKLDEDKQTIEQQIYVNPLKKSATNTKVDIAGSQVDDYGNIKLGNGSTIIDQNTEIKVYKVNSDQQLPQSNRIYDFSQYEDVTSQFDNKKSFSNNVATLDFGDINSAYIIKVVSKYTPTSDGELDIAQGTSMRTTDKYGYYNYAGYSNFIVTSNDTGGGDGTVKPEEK

On to “complement regulatory protein factor H (from UniProt P08603 19-1231) (natural protein)”, for which, in assay [1], the amount of fH bound is 2.2 ng.

B1: complement regulatory protein factor H (natural protein)
chain: EDCNELPPRRNTEILTGSWSDQTYPEGTQAIYKCRPGYRSLGNVIMVCRKGEWVALNPLRKCQKRPCGHPGDTPFGTFTLTGGNVFEYGVKAVYTCNEGYQLLGEINYRECDTDGWTNDIPICEVVKCLPVTAPENGKIVSSAMEPDREYHFGQAVRFVCNSGYKIEGDEEMHCSDDGFWSKEKPKCVEISCKSPDVINGSPISQKIIYKENERFQYKCNMGYEYSERGDAVCTESGWRPLPSCEEKSCDNPYIPNGDYSPLRIKHRTGDEITYQCRNGFYPATRGNTAKCTSTGWIPAPRCTLKPCDYPDIKHGGLYHENMRRPYFPVAVGKYYSYYCDEHFETPSGSYWDHIHCTQDGWSPAVPCLRKCYFPYLENGYNQNYGRKFVQGKSIDVACHPGYALPKAQTTVTCMENGWSPTPRCIRVKTCSKSSIDIENGFISESQYTYALKEKAKYQCKLGYVTADGETSGSITCGKDGWSAQPTCIKSCDIPVFMNARTKNDFTWFKLNDTLDYECHDGYESNTGSTTGSIVCGYNGWSDLPICYERECELPKIDVHLVPDRKKDQYKVGEVLKFSCKPGFTIVGPNSVQCYHFGLSPDLPICKEQVQSCGPPPELLNGNVKEKTKEEYGHSEVVEYYCNPRFLMKGPNKIQCVDGEWTTLPVCIVEESTCGDIPELEHGWAQLSSPPYYYGDSVEFNCSESFTMIGHRSITCIHGVWTQLPQCVAIDKLKKCKSSNLIILEEHLKNKKEFDHNSNIRYRCRGKEGWIHTVCINGRWDPEVNCSMAQIQLCPPPPQIPNSHNMTTTLNYRDGEKVSVLCQENYLIQEGEEITCKDGRWQSIPLCVEKIPCSQPPQIEHGTINSSRSSQESYAHGTKLSYTCEGGFRISEENETTCYMGKWSSPPQCEGLPCKSPPEISHGVVAHMSDSYQYGEEVTYKCFEGFGIDGPAIAKCLGEKWSHPPSCIKTDCLSLPSFENAIPMGEKKDVYKAGEQVTYTCATYYKMDGASNVTCINSRWTGRPTCRDTSCVNPPTVQNAYIVSRQMSKYPSGERVRYQCRSPYEMFGDEEVMCLNGNWTEPPQCKDSTGKCGPPPPIDNGDITSFPLSVYAPASSVEYQCQNLYQLEGNKRITCRNGQWSEPPKCLHPCVISREIMENYNIALRWTAKQKLYSRTGESVEFVCKRGYRLSSRSHTLRTTCWDGKLEYPTCAKR
notes: complement factor H, human, 155 kDa plasma protein; the assay's purified field tells the two apart; also called fH; purified fH; source: bought: CompTech (purified fH)
On to B1, for which the “fold more serum fH bound than on L. lactis (pKS80)” value in assay [2] was 4 fold; in assay [3], not above 4 fold.
